Laboratory results: US20240425593A1 (SICHUAN KELUN BIOTECH BIOPHARMACEUTICAL, published 2024)

T1: monkey PD-1-hFc (monkey)
T1 construct: Extracellular domain of monkey PD-1 fused to an hFc tag, made in house; not shown: The hFc tag and any linker
T1 chain: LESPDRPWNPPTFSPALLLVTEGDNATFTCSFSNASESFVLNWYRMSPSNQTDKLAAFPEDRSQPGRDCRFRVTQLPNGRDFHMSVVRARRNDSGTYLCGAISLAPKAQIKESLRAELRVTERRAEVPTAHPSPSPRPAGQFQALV


Assays:
[1] = target: T2, human PD-1-His (human, UniProt Q15116 25-170); experiment: BLI (Octet ForteBio), antibody on ProA biosensor, PD-1-His in solution
T2 construct: extracellular domain; not shown: His tag

[2] = target: T3, human PD-1-hFc (human, UniProt Q15116 25-170); experiment: competitive ELISA, coated PD-1-hFc, competitor PDL2-mFc
T3 construct: extracellular domain; Extracellular domain of human PD-1 fused to an hFc tag, made in house; not shown: hFc tag
Method: (§1) The specific experimental steps were as follows: human PD-1-hFc was diluted to 1 μg/mL with CBS solution, coated on a 96-well ELISA plate (purchased from Guangzhou Jiete Bio) at 4° C. overnight. After washing, 100 μL of phosphate buffer (PBS) containing 2% BSA was used for blocking at 37° C. for 1 hour. […] After washing, a goat anti-mouse secondary antibody labeled with HRP diluted in phosphate buffer (PBS) containing 2% BSA in a ratio of 1:15000 was added, followed by incubating at room temperature for 1 hour. After washing, the TMB chromogen solution was used for developing, and the absorbance value was read using a microplate reader at 450 nm, and the data were imported into Graphprism to calculate ICs values.

[3] = target: T4, PD-1 on Jurkat-PD-1-NFAT cells (UniProt Q15116 25-288, limits assumed); experiment: cell-based or functional assay
[4] = target: T2, human PD-1-His; experiment: BLI (Octet ForteBio), human PD-1-His
[5] = target: T5, full-length human PD-1 on CHO-hPD-1 cells (human, UniProt Q15116 25-288); experiment: competitive FACS on CHO-hPD-1 cells, competitor PD-L1-mFc-Bio
T5 construct: whole, on cells; also called PD-1 on the cell membrane surface of CHO-hPD-1
Text: The data were imported into Graphprism to calculate IC₅₀ values.

[6] = target: T1, monkey PD-1-hFc; experiment: ELISA, coated monkey PD-1-hFc
Method: (§2) The specific experimental steps were as follows: human PD-1-hFc and monkey PD-1-hFc antigens were diluted to 1 μg/mL with CBS solution, then coated on a 96-well ELISA plate (purchased from Guangzhou Jiete Bio) at 4° C. overnight. […] After washing, a goat anti-human secondary antibody (FC) labeled with horseradish peroxidase diluted in phosphate buffer (PBS) containing 2% BSA in a ratio of 1:15000 was added, followed by incubating at 37° C. for 1 hour. After washing, the TMB chromogen solution was used for developing, and the absorbance value was read using a microplate reader at 450 nm, and the data were imported into Graphprism to calculate EC₅₀ values.

[7] = target: T6, human PD-1-ECD-mFc (human; mouse, UniProt Q15116 25-170); experiment: ELISA, coated antigen (column head: Human PD-1-mFc; text of Example 4.2: human PD-1-hFc)
T6 construct: extracellular domain; Made in HEK293F cells; also called human PD-1-mFc; PD-1-mFc; not shown: mouse Fc (mFc) amino acids, AB097847.1
Method: as §2

[8] = target: T2, human PD-1-His; experiment: ELISA, coated human PD-1-his
Method: as §2, with “To verify the affinity of the humanized PD-1 antibody to PD-1-His antigen, ELISA was employed. The” for “The”, “PD-1-his was” for “PD-1-hFc and monkey PD-1-hFc antigens were”, “anti-mouse” for “anti-human”, “nm. The” for “nm, and the”

[9] = target: T3, human PD-1-hFc; experiment: competitive ELISA, coated PD-1-hFc, competitor PDL1-mFc
Method: as §1

[10] = target: T2, human PD-1-His; experiment: BLI (Octet ForteBio), antibody on ProA biosensor, human PD-1-His in solution
[11] = target: T3, human PD-1-hFc; experiment: competitive ELISA, coated human PD-1-hFc, competitor hPD-L2-mFc
Method: as §1

[12] = target: T3, human PD-1-hFc; experiment: competitive ELISA, coated human PD-1-hFc, competitor hPD-L1-mFc
Method: as §1

[13] = target: T4, PD-1 on Jurkat-PD-1-NFAT cells; experiment: cell-based or functional assay; remark: listed apart in the source

| Binder | Kd [1] | koff [1] | kon [1] | IC50 [2] | EC50 (nM), cell activity for blocking PD-1/PD-L1 binding, luciferase reporter gene assay [3] | fold stronger affinity than the control antibody 1 [4] | IC50 [5] | EC50 [6] | EC50 [7] | EC50 [8] | IC50 [9] | Kd [10] | koff [10] | kon [10] | IC50 [11] | IC50 [12] | EC50 from the PD-1/PD-L1 luciferase reporter system [13] |
| --- | --- | --- | --- | --- | --- | --- | --- | --- | --- | --- | --- | --- | --- | --- | --- | --- | --- |
| chimeric antibody 91D5-CH (antibody, human IgG4 S228P, kappa, V domains shown, Murine 91D5 variable regions fused to the IgG4 (S228P) heavy chain constant region and the human kappa constant region) VH: EVQLQQSGPELVKPGASVKISCRASGYTFTDYYMNWVKESHGKSLEWIGEINPKYGDTTYNQKFKDKATLTVDKSSSTASVELRSLTSEDSAVYYCAKGIRLFDSWGQGTTVTVSS VL: DIQLTQSPASLSASVGETVTITCRPSGNVHNYFAWYQQKQGKSPQLLVYNAKTLAEGVPSRFSGSGSGTQYSLKINSLQPEDFGTYYCHHYYTAPFTFGSGTKLEIKR | 0.547 nM | 0.000177 s⁻¹ | 324000 M⁻¹ s⁻¹ | 1.08 nM | 4.41 nM | 11.7 times | 0.96 ng/mL | 0.235 nM | 0.09 nM | 0.29 nM | 0.96 nM | 0.549 nM | 0.000143 s⁻¹ | 261000 M⁻¹ s⁻¹ | 1.39 nM | 1.23 nM |  |
| chimeric antibody 35E6-CH (antibody, human IgG4 S228P, kappa, Murine 35E6 variable regions fused to the IgG4 (S228P) heavy chain constant region and the human kappa constant region) heavy: not shown light: CIVLTQSPASLAVSLGQSVTISCRASESVEYYGTNLMQWYQQKPGQPPKLLIYFASNVASGVPARFSGSGSGTDFSLNIHPVEGDDIARYFCQQSKKVPSTFGGGTKLEIKRTVAAPSVFIFPPSDEQLKSGTASVVCLLNNFYPREAKVQWKVDNALQSGNSQESVTEQDSKDSTYSLSSTLTLSKADYEKHKVYACEVTHQGLSSPVTKSFNRGEC |  |  |  | 1.11 nM | 5.53 nM | 15.4 times | 1.58 ng/mL | 0.198 nM | 0.103 nM | 0.2 nM | 0.88 nM | 0.416 nM | 0.000123 s⁻¹ | 296000 M⁻¹ s⁻¹ | 1.78 nM | 1.6 nM |  |
| humanized antibody 35E6-HZ1 (antibody, human IgG4 S228P, kappa) heavy: not shown light: EIVLTQSPATLSLSPGERATLSCRASESVEYYGTNLMQWYQQKPGQPPRLLIYFASNVASGIPARFSGSGSGTDFTLTISSLEPEDFAVYFCQQSKKVPSTFGQGTKVEIKRTVAAPSVFIFPPSDEQLKSGTASVVCLLNNFYPREAKVQWKVDNALQSGNSQESVTEQDSKDSTYSLSSTLTLSKADYEKHKVYACEVTHQGLSSPVTKSFNRGEC | 1.31 nM | 0.000517 s⁻¹ | 395000 M⁻¹ s⁻¹ | 1.15 nM |  |  |  |  |  | 0.3 nM | 0.94 nM |  |  |  |  |  | 3.63 nM |
| humanized antibody 91D5-HZ1 (antibody, human IgG4 S228P, kappa, V domains shown) VH: EVQLVQSGAEVKKPGASVKVSCKASGYTFTDYYMNWVREAPGQGLEWMGEINPKYGDTTYAQKLQGRVTLTVDKSTSTAYMELSSLRSDDTAVYYCAKGIRLFDSWGQGTLVTVSS VL: DIQLTQSPSSLSASVGDRVTITCRPSGNVHNYFAWYQQKPGKSPKLLVYNAKTLAEGVPSRFSGSGSGTDYTLTISSLQPEDFATYYCHHYYTAPFTFGGGTKVEIKR | 1.89 nM | 0.00053 s⁻¹ | 281000 M⁻¹ s⁻¹ | 1.25 nM |  |  |  |  |  | 0.39 nM | 1.19 nM |  |  |  |  |  |  |
| humanized antibody 91D5-HZ2 (antibody, human IgG4 S228P, kappa) heavy: not shown light: DIQLTQSPSSLSASVGDRVTITCRPSGNVHNYFAWYQQKPGKSPKLLVYNAKTLAEGVPSRFSGSGSGTDYTLTISSLQPEDFATYYCHHYYTAPFTFGGGTKVEIKRTVAAPSVFIFPPSDEQLKSGTASVVCLLNNFYPREAKVQWKVDNALQSGNSQESVTEQDSKDSTYSLSSTLTLSKADYEKHKVYACEVTHQGLSSPVTKSFNRGEC | 1.5 nM | 0.000472 s⁻¹ | 315000 M⁻¹ s⁻¹ | 1.22 nM |  |  |  |  |  | 0.42 nM | 1.13 nM |  |  |  |  |  | 4.47 nM |
| humanized antibody 29C6-HZ1 (antibody, human IgG4 S228P, kappa, V domains shown) VH: QVQLVQSGAEVKKPGASVKVSCKTSGYTFTEYTIYWVRQAPGQGLEWIGGINPKNGATLYNQKFQGRVTLTVDKSTSTAYMELRSLRSDDTAVYYCVRDYHGNSHDSMDYWGQGTLVTVSS VL: EIVLTQSPATLSLSPGERATLSCSASSSVSYMHWFQQKPGQAPRLWIYYTSNLASGVPARFSGSGSGTDYTLTISSLEPEDFAVYYCQQRSDYPPTFGGGTKVEIKR |  |  |  | 3.63 nM |  |  |  |  |  | 0.42 nM | 3.11 nM |  |  |  |  |  |  |
| humanized antibody 29C6-HZ2 (antibody, human IgG4 S228P, kappa, V domains shown) VH: QVQLVQSGVEVKKPGASVKVSCKTSGYTFTEYTIYWVRQAPGQGLEWIGGINPKNGATLYNQKFKVRATLTVDKSTTTAYMELKSLQFDDTAVYYCVRDYHGNSHDSMDYWGQGTTVTVSS VL: EIVLTQSPATLSLSPGERATLSCSASSSVSYMHWFQQKPGQAPRLLIYYTSNLASGVPARFSGSGSGTDYTLTISSLEPEDFAVYYCQQRSDYPPTFGGGTKVEIKR | 1.65 nM | 0.000454 s⁻¹ | 275000 M⁻¹ s⁻¹ | 0.95 nM |  |  |  |  |  | 0.16 nM | 0.88 nM |  |  |  |  |  | 5.74 nM |
| chimeric antibody 29C6-CH (antibody, human IgG4 S228P, kappa, V domains shown, Murine 29C6 variable regions fused to the IgG4 (S228P) heavy chain constant region and the human kappa constant region) VH: QVQLEESGPELVKPGASVKISCKTSGYTFTEYTIYWVKQSHGKSLEWIGGINPKNGATLYNQKFKVKATLTVDKSSSTAYMELRSLTSEDSAVYYCVRDYHGNSHDSMDYWGQGTSVTVSS VL: QIVLTQSPAIMSASPGEKVTITCSASSSVSYMHWFRQKPGTSPKLWIYYTSNLASGVPAHFSGSGSGTSYSLTISRMEAEDAATYYCQQRSDYPPTFGGGTKLEIKR | 0.516 nM | 0.000166 s⁻¹ | 322000 M⁻¹ s⁻¹ | 1.31 nM | 10.7 nM | 7.3 times | 1.7 ng/mL | 0.171 nM | 0.115 nM | 0.17 nM | 1.15 nM | 0.88 nM | 0.000198 s⁻¹ | 226000 M⁻¹ s⁻¹ | 1.97 nM | 1.73 nM |  |
| chimeric antibody 14A4-CH (antibody, human IgG4 S228P, kappa, V domains shown, Murine 14A4 variable regions fused to the IgG4 (S228P) heavy chain constant region and the human kappa constant region) VH: EVQLVESGGGLVKPGGSLKLSCAASGFTFSSYGMSWGRQTPEKRLEWVATISGGGSDTYYPDSVKGRFTISRDNVKNNLYLQMSSLRSEDTALYYCARQYGITWFAYWGQGTLVTVSA VL: not shown |  |  |  |  | 8.4 nM | 4.3 times | 0.75 ng/mL | 0.171 nM | 0.082 nM |  |  | 1.49 nM | 0.000206 s⁻¹ | 138000 M⁻¹ s⁻¹ | 1.17 nM | 1.12 nM |  |
